Paper PMC8584533, “Hetero/Homo-Complexes of Sucrose Transporters May Be a Subtle Mode to Regulate Sucrose Transportation in Grape Berries” (International Journal of Molecular Sciences, 2021)

T1: SUC11 (Chardonnay) (Vitis vinifera, UniProt Q9SQK6)
T1 construct: gene VvSUC11; full length, 500 residues, one site different from Thompson Seedless; expressed in yeast SUSY7/ura3
T1 sequence (Q9SQK6 1-501): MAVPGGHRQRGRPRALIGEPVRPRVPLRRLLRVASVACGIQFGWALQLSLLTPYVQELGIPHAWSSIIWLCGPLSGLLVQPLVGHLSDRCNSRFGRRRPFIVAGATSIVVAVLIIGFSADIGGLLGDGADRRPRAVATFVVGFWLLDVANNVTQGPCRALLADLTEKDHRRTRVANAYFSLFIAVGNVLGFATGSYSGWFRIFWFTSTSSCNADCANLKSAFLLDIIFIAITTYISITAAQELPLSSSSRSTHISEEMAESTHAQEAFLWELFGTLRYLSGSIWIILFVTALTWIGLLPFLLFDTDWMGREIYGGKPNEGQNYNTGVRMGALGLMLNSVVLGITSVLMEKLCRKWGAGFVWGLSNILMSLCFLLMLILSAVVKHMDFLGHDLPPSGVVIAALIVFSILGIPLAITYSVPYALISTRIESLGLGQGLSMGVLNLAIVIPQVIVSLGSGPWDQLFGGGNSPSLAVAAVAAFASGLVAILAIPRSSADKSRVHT


How the values were obtained:
[1] = target: T1, SUC11 (Chardonnay); assay: sucrose transport in yeast SUSY7/ura3; assay type: cell-based; details: 0.1, 0.2 and 2 mM sucrose
[2] = substrate: OC[C@H]1O[C@@](CO)(O[C@H]2O[C@H](CO)[C@@H](O)[C@H](O)[C@H]2O)[C@@H](O)[C@@H]1O; assay: cells, lysate or membranes; assay type: cell-based, Vitis vinifera; details: pH 5.0, 30 °C, 10 mM glucose, 20 min, expressed alone, labelled compound

Molecule | sucrose transport ability [1] | Km [2]
OC[C@H]1O[C@@](CO)(O[C@H]2O[C@H](CO)[C@@H](O)[C@H](O)[C@H]2O)[C@@H](O)[C@@H]1O [sucrose] | did not affect the structure (Figure S5a) or sucrose transport ability | 
VvSUC12 (Vitis vinifera) (protein, full length, 611 residues (printed), leaf cDNA in pDR196, expressed in yeast SUSY7/ura3) MPETMDAPSIRVPYKNLKQAEVELVAADEPRHGADLNSRVPNGTSDPSSSPSSIPHPPKHGGLRTLILSCMIAAGVQFGWALQLSLLTPYIQTLGIEHAFSSFIWLCGPITGLVVQPCVGIWSDKCSSKYGRRRPFILAGSLMISVAVTIIGFSADIGYLLGDTNMDCRKFKGTRTWAAIIFVLGFWMLDLANNTVQGPARALLADLSGPDQRNSANAIFCSWMAVGNILGFSAGASGHWHRWFPFLLNKACCEACGNLKAAFLIAVVFLTLCTLVTLYFAEEVPLMAYQPHHLSDSAPLLDNPQQIGFDNSKSKLDMSAVDNATGNNPESSYEINKNAKHLTPIVQEQNESFSDGPGAVLVNLLTSLRHLPPAMHSVLLVMALSWLSWFPFFLFDTDWMGREVYHGDPKGDESAVKAYDAGVREGAFGLLLNSVDLGISSFLIEPMCQRMGARLVWAMSNFIVFACMAGTAIISLVSVNEYITEGIQHAIGENRAIKIASLVVFALLGFPLSITYSVPFSITAELTADTGGGQGLAIGVLNLAIVIPQMIVSLGAGPWDALFGGGNIPAFVLAALFALAAGVIATLKLPNLSSSSYKSSGFHFGNFPASMR |  | 943 µM
VvSUC11 (Vitis vinifera) (protein, full length, 500 residues (printed), leaf cDNA in pDR196, expressed in yeast SUSY7/ura3) MAVPGGHRQRGRPRALIGEPVRPRVPLRRLLRVASVACGIQFGWALQLSLLTPYVQELGIPHAWSSIIWLCGPLSGLLVQPLVGHLSDRCNSRFGRRRPFIVAGATSIVVAVLIIGFSADIGGLLGDGADRRPRAVATFVVGFWLLDVANNVTQGPCRALLADLTEKDHRRTRVANAYFSLFIAVGNVLGFATGSYSGWFRIFWFTSTSSCNADCANLKSAFLLDIIFIAITTYISITAAQELPLSSSSRSTHISEEMAESTHAQEAFLWELFGTLRYLSGSIWIILFVTALTWIGLLPFLLFDTDWMGREIYGGKPNEGQNYNTGVRMGALGLMLNSVVLGITSVLMEKLCRKWGAGFVWGLSNILMSLCFLLMLILSAVVKHMDFLGHDLPPSGVVIAALIVFSILGIPLAITYSVPYALISTRIESLGLGQGLSMGVLNLAIVIPQVIVSLGSGPWDQLFGGGNSPSLAVAAVAAFASGLVAILAIPRSSADKSRVHT |  | 354 µM
VvSUC27 (Vitis vinifera) (protein, full length, 504 residues (printed), leaf cDNA in pDR196, expressed in yeast SUSY7/ura3) MELAKPSSVFAIQDHQSSSPPTPIWKTVVVASIAAGIQFGWALQLSLLTPYVQLLGIPHKWAAFIWLCGPISGMIVQPVVGYHSDRCTSRFGRRRPFIAAGAVLVAIAVFLIGYAADIGRVSGDPLHNTIKTRAVAVFVVGFWILDVANNMLQGPCRALLADLSGTSARRTRTANALYSFFMAVGNVLGYAAGSFSKLHKMFPFARTQACDLYCANLKSCFFLSIALLLILTIIAFATVHETPLNRADIAVVEAGQPFYSQMMNAFRQLRRPMWVLLLVTCLNWIGWFPFLLFDTDWMGREVYGGTVGEGPRGRLYDLGVRAGSLGLMLNSVVLGLMSLGVEFFGRGVGGVKRLWGGVNFLLALCLALTVLVSKLAASWRHSLGGELHPPPIGIKAGALSLFAVMGVPLAITYSIPFALASIFCHSSGAGQGLSLGVLNLAIVVPQMMVSVASGPWDARFGGGNLPAFVVGAFAAALNGVLALTMLPAPPPDVPNTKDERTQPSS |  | 3064 µM
